Our source for the Kd values is patent publication KR20200019669A (dated 2020).

The target in the test is T1, his 태그가 부착된 재조합 인간 CD38 (recombinant human CD38 extracellular domain, His-tagged) (human, UniProt P28907 43-300, biotinylated in part of the ForteBio assays (EZ-Link sulfo-NHS biotinylation)).
T1 construct: Bought from Sino Biological; also called rhCD38; rhCD38-his; not shown: histidine tag
T1 sequence: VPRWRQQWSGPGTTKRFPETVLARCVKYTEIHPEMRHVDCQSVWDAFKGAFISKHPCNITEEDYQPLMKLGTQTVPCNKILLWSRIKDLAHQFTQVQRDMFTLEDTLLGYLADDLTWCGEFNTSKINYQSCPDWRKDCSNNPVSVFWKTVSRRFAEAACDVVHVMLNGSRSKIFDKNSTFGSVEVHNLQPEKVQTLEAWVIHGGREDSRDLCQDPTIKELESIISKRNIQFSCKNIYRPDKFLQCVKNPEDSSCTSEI
Put plainly: affinity on recombinant human CD38 extracellular domain (Octet/Biacore); order of magnitude told in text.

B1: aCD38-b-329 (antibody, human IgG1, V domains shown)
VH: QLQLQESGPGLVKPSETLSLTCTVSGGSISSSDYYWGWIRQPPGKGLEWIGSIYYSGSTYYNPSLKSRVTISVDTSKNQFSLKLSSVTAADTAVYYCARGQYSSGWYAYPFDMWGQGTMVTVSS
VL: EIVLTQSPGTLSLSPGERATLSCRASQSVRSSYLAWYQQKPGQAPRLLIYGASSRATGIPDRFSGSGSGTDFTLTISRLEPEDFAVYYCQQDGAVFTFGGGTKVEIK
notes: Human IgG1 with kappa constant region (P01857, P01834)
As for B1, the Kd was ~1 nM.
